For assay [1], the target named is Human plasma fibronectin (human) (UniProt P02751). Briefly: soluble 125I-Fn bound to untreated whole C. jejuni, gamma counting.
Assay [2] has as its target Human plasma fibronectin (human, UniProt P02751-8, 125I-labelled (Iodogen method) or biotinylated (sulfo-NHS-biotin) in the ligand blots and the soluble binding assay; unlabelled when immobilised on coverslips). Put plainly: ligand blot with 125I-labeled Fn.

“C. jejuni whole bacteria (isolate not stated) in the soluble 125I-Fn assay (cells without a defined receptor)”: in assay [1], the ng Fn bound was 380 ng.

B1: CadF protein of Campylobacter coli M275 (other)
chain: ADNNVKFEITPTLNHNYFEGNLDMDNRYAPGIRLGYHFDDFWLDQLELGLEHYSDVKYTNSTLTTDITRTYLSAIKGIDLGEKFYFYGLAGGGYEDFSKGAFDNKSGGFGHYGAGLKFRLSDSLALRLETRDQISFHDADHSWVSTLGISFGFGAKREKVVAEQVKEVAIEPRVAVPTQSQCPAEPREGAMLDENGCEKTISFEGHFGFDKVDINPAFEEKIKEIAQLLDENARYDTILEGHTDNIGSRAYNQKLSERRAESVAKELEKFGVDKDRIQTVGYGQDKPRSRNETKEGRADNRRVDAKFILR
For B1, the binding result in assay [2] is “binds”.

For the origin of these results see patent publication US6156546 (Washington State University Research Foundation, dated 2000).
